± gives the uncertainty stated by the source.
Test: self-splicing fitness, log relative to wild type (ln ratio); higher = more splicing; Tetrahymena group I intron in knt gene, E. coli kanamycin selection, DiMSum; sequences stand for … in CUCUCU…GGAGGGAAAAGUUAUCAGGCAUGCACCUGGUAGCUAGUCUUUAAACCAAUAGAUUGCAUCGGUUUAAAAGGCAAGACCGUCAAAUUGCGGGAAAGGGGUCAACAGCCGUUCAGUACCAAGUCUCAGGGGAAACUUUGAGAUGGCCUUGCAAAGGGUAUGGUAAUAAGCUGACGGACAUGGUCCUAACCACGCAGCCAAGUCCUAAGUCAACAGAUCUUCUGUUGAUAUGGAUGCAGUUCACAGACUAAAUGUCGGUCGGGGAAGAUGUAUUCUUCUCAUAAGAUAUAGUCGGACCUCUCCUUAAUGGGAGCUAGCGGAUGAAGUGAUGCAACACUGGAGCCGCUGGGAACUAAUUUGUAUGCGAAAGUAUAUUGAUUAGUUUUGGAGUACUCGUGGUCG
In short: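 Six replicate transformations of E. coli BL21(DE3) with a pET-22b(+) library were grown overnight at 37°C or 30°C. The library randomised all eight P1ex-region intron nucleotides, the intron lying in the knt kanamycin-resistance gene, and plates were LB agar with or without 25 μg/mL kanamycin plus 100 μg/mL carbenicillin, 50 μM IPTG and 0.2% rhamnose. Pooled colonies were amplicon-sequenced on an Illumina HiSeq 2500, and fitness is the DiMSum error-weighted combination of wild-type-normalised replicate fold changes, kanamycin versus none.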

Sequence	self-splicing fitness (ln) (30 °C)	self-splicing fitness (ln) (37 °C)
AGCCAGCAAUAUUACGGUGG	-4.22 ± 0.19	-2.17 ± 0.17
AGAUAGCAAUAUUACGUCUC	-3.01 ± 0.21	-3.05 ± 0.4
AAAGAGCAAUAUUACGCAUA	-2.55 ± 0.23	-1.42 ± 0.22
AGUCAGCAAUAUUACGGACU	-2.86 ± 0.27	-2.27 ± 0.29
GCGGAGCAAUAUUACGCUCC	–	-0.469 ± 0.39
GAGGAGCAAUAUUACGGGCC	-2.4 ± 0.4	–
CGUCAGCAAUAUUACGGUAG	-0.184 ± 0.059	0.0634 ± 0.064
CGAAAGCAAUAUUACGUCCA	-1.26 ± 0.12	-0.276 ± 0.13
CAAAAGCAAUAUUACGAGAA	-1.51 ± 0.24	-2.47 ± 0.25
CGCGAGCAAUAUUACGAUUU	-3.35 ± 0.21	-3.39 ± 0.24
GCAGAGCAAUAUUACGCCGC	-2.91 ± 0.38	–
GAUCAGCAAUAUUACGACUC	-0.0915 ± 0.14	-0.146 ± 0.15
CCGAAGCAAUAUUACGAGGU	-3.79 ± 0.2	-2.9 ± 0.26
AAAAAGCAAUAUUACGACCA	-0.0993 ± 0.079	-0.734 ± 0.09
GCUUAGCAAUAUUACGCUCC	-0.928 ± 0.15	-1.09 ± 0.26
GACGAGCAAUAUUACGGCUC	-2.6 ± 0.12	-1.41 ± 0.15
UUGAAGCAAUAUUACGAUCG	-0.0761 ± 0.14	0.264 ± 0.19
GUGGAGCAAUAUUACGAGCC	–	-1.59 ± 0.35
AAUUAGCAAUAUUACGAACC	-0.0097 ± 0.32	-0.827 ± 0.36
GCAAAGCAAUAUUACGCCAG	-2.38 ± 0.15	-3.19 ± 0.29
GCAGAGCAAUAUUACGGCCU	–	-1.69 ± 0.28

Sequence	self-splicing fitness (ln) (30 °C)	self-splicing fitness (ln) (37 °C)
GAGCAGCAAUAUUACGAGCG	-2.3 ± 0.092	-1.11 ± 0.11
AUGCAGCAAUAUUACGUAAA	-1.44 ± 0.092	-1.14 ± 0.13
UAUGAGCAAUAUUACGAGAU	–	-2.19 ± 0.3
UUCCAGCAAUAUUACGGCAG	-0.446 ± 0.075	-0.096 ± 0.11
AGCUAGCAAUAUUACGAUUA	-2.31 ± 0.21	-0.806 ± 0.14
GCACAGCAAUAUUACGAAUG	-1.89 ± 0.051	-1.09 ± 0.063
CAGAAGCAAUAUUACGUGCG	-0.578 ± 0.07	0.0457 ± 0.099
AAUGAGCAAUAUUACGAUAA	-3.11 ± 0.17	-2.51 ± 0.2
UGUAAGCAAUAUUACGCAAU	-3.44 ± 0.18	-3.36 ± 0.2
CGGAAGCAAUAUUACGAACU	-1.04 ± 0.1	-0.0975 ± 0.12
UUCGAGCAAUAUUACGUUUU	-3.49 ± 0.18	-2.77 ± 0.2
GACAAGCAAUAUUACGGGGC	-3.36 ± 0.18	-2.81 ± 0.23
UAACAGCAAUAUUACGCUUG	-0.975 ± 0.06	-0.577 ± 0.082
CCCGAGCAAUAUUACGAUUU	-3.84 ± 0.23	-2.15 ± 0.2
GCACAGCAAUAUUACGGAUC	-0.505 ± 0.053	-0.336 ± 0.061
GCGAAGCAAUAUUACGGAUA	-1.76 ± 0.12	-0.933 ± 0.12
CCGCAGCAAUAUUACGCUUC	-4.17 ± 0.46	–
CUCGAGCAAUAUUACGCUAG	-4.42 ± 0.39	-2.52 ± 0.32
ACUGAGCAAUAUUACGCCCC	-2.6 ± 0.34	–
AAAAAGCAAUAUUACGGUGU	-2.13 ± 0.094	-1.39 ± 0.11
CCGGAGCAAUAUUACGGGAU	-3.11 ± 0.36	-2.44 ± 0.25

Sequence	self-splicing fitness (ln) (30 °C)	self-splicing fitness (ln) (37 °C)
GUAAAGCAAUAUUACGUACU	-1.01 ± 0.076	-0.965 ± 0.13
CUAAAGCAAUAUUACGAGCU	-4.12 ± 0.26	-2.82 ± 0.38
CCUCAGCAAUAUUACGCAAA	–	-2.46 ± 0.3
CAGGAGCAAUAUUACGAGCC	-2.71 ± 0.29	-2.44 ± 0.49
CACGAGCAAUAUUACGGACU	-3.12 ± 0.22	-1.44 ± 0.25
AGAGAGCAAUAUUACGACAG	-3.47 ± 0.43	-2.52 ± 0.41
GCUUAGCAAUAUUACGACCU	-0.423 ± 0.1	0.203 ± 0.14
GGUAAGCAAUAUUACGAGUA	-2.4 ± 0.21	-1.03 ± 0.14
CGAAAGCAAUAUUACGGUAA	-2.13 ± 0.16	-1.56 ± 0.15
CCCGAGCAAUAUUACGCAGA	-3.96 ± 0.25	-2.71 ± 0.33
UGUGAGCAAUAUUACGUCGC	-1.15 ± 0.21	–
AGGGAGCAAUAUUACGUGUC	-3.95 ± 0.47	-2.69 ± 0.26
AGCGAGCAAUAUUACGGCAG	-1.87 ± 0.14	-1.07 ± 0.23
CAGAAGCAAUAUUACGUAAU	-3.4 ± 0.15	-2.85 ± 0.21
UCCUAGCAAUAUUACGUACU	-3.41 ± 0.3	-2 ± 0.26
AGACAGCAAUAUUACGCUCC	-3.32 ± 0.48	-1.64 ± 0.19
UGUAAGCAAUAUUACGGGUU	-3.86 ± 0.27	-2 ± 0.2
CUGGAGCAAUAUUACGGGUC	-1.97 ± 0.16	-2.26 ± 0.34
UGAUAGCAAUAUUACGGCCC	-2.82 ± 0.48	-0.72 ± 0.42
CCGUAGCAAUAUUACGAUAU	-2 ± 0.19	-3.31 ± 0.43
GCUCAGCAAUAUUACGACUU	0.064 ± 0.085	-0.0421 ± 0.078

Sequence	self-splicing fitness (ln) (30 °C)	self-splicing fitness (ln) (37 °C)
CGCAAGCAAUAUUACGCCGC	–	-1.24 ± 0.49
GUCCAGCAAUAUUACGCCAC	-2.51 ± 0.44	–
CGACAGCAAUAUUACGGUGU	-3.48 ± 0.14	-2.77 ± 0.16
CGAUAGCAAUAUUACGGGCA	-2.06 ± 0.14	-1.53 ± 0.15
AUGCAGCAAUAUUACGAGUC	-3.73 ± 0.25	-2.32 ± 0.22
UUUAAGCAAUAUUACGUGUA	-1.88 ± 0.12	-0.799 ± 0.12
GACGAGCAAUAUUACGCUGG	–	-2.79 ± 0.43
ACCAAGCAAUAUUACGGGAG	-3.22 ± 0.13	-2.66 ± 0.14
GAUUAGCAAUAUUACGUUGG	-4.17 ± 0.27	-2.16 ± 0.18
CUUCAGCAAUAUUACGGUGG	-2.39 ± 0.12	-1.18 ± 0.15
GCCUAGCAAUAUUACGCUUC	-2.42 ± 0.16	-0.334 ± 0.13
GAUUAGCAAUAUUACGUAAC	-1.94 ± 0.17	0.224 ± 0.14
GUGGAGCAAUAUUACGUGUA	-2.68 ± 0.2	-2.85 ± 0.24
UCGUAGCAAUAUUACGACUC	–	-1.34 ± 0.31
CGUAAGCAAUAUUACGCAGA	-2.28 ± 0.27	-2.67 ± 0.38
CGGGAGCAAUAUUACGAGAU	–	-2.17 ± 0.35
AGUUAGCAAUAUUACGCGCA	-0.182 ± 0.14	0.341 ± 0.21
AGCUAGCAAUAUUACGUAAA	-3.11 ± 0.19	-1.14 ± 0.16

— the supplement of paper PMC7877785
